Measured values taken from patent US10894036B2, “Use of marizomib for the treatment of central nervous system (CNS) cancers” (Celgene International II Sàrl, priority 2016, dated 2021).

Test: Phase 1/2 MRZ + BEV and MRZ monotherapy in recurrent G4 MG: adverse events, DLT
Conditions: MRZ+BEV

bevacizumab [reference compound]
8: Epistaxis: # events related to BEV (17 May 2016)
10: Dysphonia: # events related to BEV (17 May 2016) | Dysphonia: # patients, AE related to labelled agent (BEV, MRZ, Both) (36 pts, as of 12 Sep. 2016)
7: Epistaxis: # pts, related to BEV (12 Sep. 2016) | Epistaxis: # patients, AE related to labelled agent (BEV, MRZ, Both) (36 pts, as of 12 Sep. 2016)
13: Hypertension: # pts, related to BEV (12 Sep. 2016) | Hypertension: # patients, AE related to labelled agent (BEV, MRZ, Both) (36 pts, as of 12 Sep. 2016)
0: Ear Infection: # pts, related to BEV (12 Sep. 2016) | Falls: # pts, related to BEV (12 Sep. 2016) | Fatigue: # pts, related to BEV (12 Sep. 2016) | Fracture of Femur: # pts, related to BEV (12 Sep. 2016) | Hallucination: # pts, related to BEV (12 Sep. 2016) | Hemiparesis: # pts, related to BEV (12 Sep. 2016) | Hyperglycemia: # pts, related to BEV (12 Sep. 2016) | Hypokalemia: # pts, related to BEV (12 Sep. 2016) | Hyponatremia: # pts, related to BEV (12 Sep. 2016) | Hypotension: # pts, related to BEV (12 Sep. 2016) | Infusion Site Pain: # pts, related to BEV (12 Sep. 2016) | Lymphocyte Count Decreased: # pts, related to BEV (12 Sep. 2016) | Muscular Weakness: # pts, related to BEV (12 Sep. 2016) | Nausea: # pts, related to BEV (12 Sep. 2016) | Pyramidal Tract Syndrome: # pts, related to BEV (12 Sep. 2016) | Tumor Metastasis: # pts, related to BEV (12 Sep. 2016) | Vision Blurred: # pts, related to BEV (12 Sep. 2016) | Vomiting: # pts, related to BEV (12 Sep. 2016) | Anaemia: # events related to BEV (17 May 2016) | Aphasia: # events related to BEV (17 May 2016) | Appendicitis Perforated: # events related to BEV (17 May 2016) | Asthenia: # events related to BEV (17 May 2016) | Ataxia: # events related to BEV (17 May 2016) | Confusional State: # events related to BEV (17 May 2016) | Constipation: # events related to BEV (17 May 2016) | Convulsion: # events related to BEV (17 May 2016) | Delusion: # events related to BEV (17 May 2016) | Diarrhoea: # events related to BEV (17 May 2016) | Dizziness: # events related to BEV (17 May 2016) | Dysarthria: # events related to BEV (17 May 2016) | Dysphagia: # events related to BEV (17 May 2016) | Dyspnoea: # events related to BEV (17 May 2016) | Ear Infection: # events related to BEV (17 May 2016) | Fatigue: # events related to BEV (17 May 2016) | Hallucination: # events related to BEV (17 May 2016) | Hemiparesis: # events related to BEV (17 May 2016) | Hyperglycemia: # events related to BEV (17 May 2016) | Hypokalemia: # events related to BEV (17 May 2016) | Hypotension: # events related to BEV (17 May 2016) | Insomnia: # events related to BEV (17 May 2016) | Lymphocyte Count Decreased: # events related to BEV (17 May 2016) | Muscular Weakness: # events related to BEV (17 May 2016) | Nausea: # events related to BEV (17 May 2016) | Pyramidal Tract Syndrome: # events related to BEV (17 May 2016) | Vomiting: # events related to BEV (17 May 2016) | Anaemia: # patients, AE related to labelled agent (BEV, MRZ, Both) (36 pts, as of 12 Sep. 2016) | Anxiety: # patients, AE related to labelled agent (BEV, MRZ, Both) (36 pts, as of 12 Sep. 2016) | Aphasia: # patients, AE related to labelled agent (BEV, MRZ, Both) (36 pts, as of 12 Sep. 2016) | Appendicitis Perforated: # patients, AE related to labelled agent (BEV, MRZ, Both) (36 pts, as of 12 Sep. 2016) | Asthenia: # patients, AE related to labelled agent (BEV, MRZ, Both) (36 pts, as of 12 Sep. 2016) | Ataxia: # patients, AE related to labelled agent (BEV, MRZ, Both) (36 pts, as of 12 Sep. 2016) | Confusional State: # patients, AE related to labelled agent (BEV, MRZ, Both) (36 pts, as of 12 Sep. 2016) | Constipation: # patients, AE related to labelled agent (BEV, MRZ, Both) (36 pts, as of 12 Sep. 2016) | Convulsion: # patients, AE related to labelled agent (BEV, MRZ, Both) (36 pts, as of 12 Sep. 2016) | Delusion: # patients, AE related to labelled agent (BEV, MRZ, Both) (36 pts, as of 12 Sep. 2016) | Depressed Level of Consciousness: # patients, AE related to labelled agent (BEV, MRZ, Both) (36 pts, as of 12 Sep. 2016) | Diarrhoea: # patients, AE related to labelled agent (BEV, MRZ, Both) (36 pts, as of 12 Sep. 2016) | Dizziness: # patients, AE related to labelled agent (BEV, MRZ, Both) (36 pts, as of 12 Sep. 2016) | Dysarthria: # patients, AE related to labelled agent (BEV, MRZ, Both) (36 pts, as of 12 Sep. 2016) | Dysphagia: # patients, AE related to labelled agent (BEV, MRZ, Both) (36 pts, as of 12 Sep. 2016) | Dyspnoea: # patients, AE related to labelled agent (BEV, MRZ, Both) (36 pts, as of 12 Sep. 2016) | Ear Infection: # patients, AE related to labelled agent (BEV, MRZ, Both) (36 pts, as of 12 Sep. 2016) | Falls: # patients, AE related to labelled agent (BEV, MRZ, Both) (36 pts, as of 12 Sep. 2016) | Fatigue: # patients, AE related to labelled agent (BEV, MRZ, Both) (36 pts, as of 12 Sep. 2016) | Fracture of Femur: # patients, AE related to labelled agent (BEV, MRZ, Both) (36 pts, as of 12 Sep. 2016) | Hallucination: # patients, AE related to labelled agent (BEV, MRZ, Both) (36 pts, as of 12 Sep. 2016) | Hemiparesis: # patients, AE related to labelled agent (BEV, MRZ, Both) (36 pts, as of 12 Sep. 2016) | Hyperglycemia: # patients, AE related to labelled agent (BEV, MRZ, Both) (36 pts, as of 12 Sep. 2016) | Hypokalemia: # patients, AE related to labelled agent (BEV, MRZ, Both) (36 pts, as of 12 Sep. 2016) | Hyponatremia: # patients, AE related to labelled agent (BEV, MRZ, Both) (36 pts, as of 12 Sep. 2016) | Hypotension: # patients, AE related to labelled agent (BEV, MRZ, Both) (36 pts, as of 12 Sep. 2016) | Infusion Site Pain: # patients, AE related to labelled agent (BEV, MRZ, Both) (36 pts, as of 12 Sep. 2016) | Lymphocyte Count Decreased: # patients, AE related to labelled agent (BEV, MRZ, Both) (36 pts, as of 12 Sep. 2016) | Muscular Weakness: # patients, AE related to labelled agent (BEV, MRZ, Both) (36 pts, as of 12 Sep. 2016) | Nausea: # patients, AE related to labelled agent (BEV, MRZ, Both) (36 pts, as of 12 Sep. 2016) | Pyramidal Tract Syndrome: # patients, AE related to labelled agent (BEV, MRZ, Both) (36 pts, as of 12 Sep. 2016) | Tumor Metastasis: # patients, AE related to labelled agent (BEV, MRZ, Both) (36 pts, as of 12 Sep. 2016) | Vision Blurred: # patients, AE related to labelled agent (BEV, MRZ, Both) (36 pts, as of 12 Sep. 2016) | Vomiting: # patients, AE related to labelled agent (BEV, MRZ, Both) (36 pts, as of 12 Sep. 2016)
1: Headache: # pts, related to BEV (12 Sep. 2016) | Insomnia: # pts, related to BEV (12 Sep. 2016) | Optic Nerve Disorder: # pts, related to BEV (12 Sep. 2016) | Embolism: # events related to BEV (17 May 2016) | Headache: # patients, AE related to labelled agent (BEV, MRZ, Both) (36 pts, as of 12 Sep. 2016) | Insomnia: # patients, AE related to labelled agent (BEV, MRZ, Both) (36 pts, as of 12 Sep. 2016) | Optic Nerve Disorder: # patients, AE related to labelled agent (BEV, MRZ, Both) (36 pts, as of 12 Sep. 2016)
